Residue numbers refer to the chain shown, from its start.
B1: rC/EBPβ-Ala^105: modified rat C/EBPβ with mutation of Ser^105 to Ala (SEQ ID NO:14), nonphosphorylatable mutant (protein, listed as Rattus norvegicus)
chain: MHRLLAWDAACLPPPPAAFRPMEVANFYYEPDCLAYGAKAARAAPRAPAAEPAIGEHERAIDFSPYLEPLAPAAADFAAPAPAHHDFLSDLFADDYGAKPSKKPADYGYVSLGRAGAKAAPPACFPPPPPAALKAEPGFEPADCKRADDAPAMAAGFPFALRAYLGYQATPSGSSGSLSTSSSSSPPGTPSPADAKAAPAACFAGPPAAPAKAKAKKAVDKLSDEYKMRRERNNIAVRKSRDKAKMRNLETQHKVLELTAENERLQKKVEQLSRELSTLRNLFKQLPEPLLASAGHC
B2: rC/EBPβ-Asp^105: modified rat C/EBPβ with mutation of Ser^105 to aspartic acid (SEQ ID NO:15), phosphorylation mimic (protein, listed as Rattus norvegicus)
chain: B1 chain with A105D

Tested on: hepatic stellate cells
Test: Apoptosis of activated stellate cells transfected with C/EBPβ constructs, annexin-V-PE binding
Assay type: cell-based, mouse
Details: for Effect of expressed construct on apoptosis / survival of stellate cells: transfected cells on collagen type I matrix
Source text: FIG. 1 provides data showing that phosphorylation of C/EBPβ on Thr^217 is required for hepatic stellate cell survival. Panel A provides phosphopeptide maps of in vivo labeled endogenous C/EBPβ in day-4 quiescent and activated primary mouse stellate cells cultured from the time of isolation on EHS or collagen type I matrix, respectively. The arrow indicates the peptide containing Phospho-Thr^217 in activated cells. […] Panel B provides phosphopeptide maps of in vitro labeled C/EPBβ. Active p90RSK phosphorylated C/EPBβ, but not C/EBPβ-Ala^217 on Thr^217 in vitro (arrowheads). Panel C provides results for cells cultured on collagen type I transfected with MSV-C/EBPβ antisense (AS), MSV-C/EBPβ sense (S), or MSV-C/EBPβ-Ala^217 together with CMV-GFP (green fluorescent protein) and p90RSK (1 μg each), as indicated in the Figure. Four hours after transfection, annexin-V-PE binding to plasma membranes was determined. The values presented are the percentage of transfected cells (green) that were annexin-V-PE (+) (red) (P<0.05 for C/EBPβ AS, and C/EBPβ-Ala^217). Panel D provides results for cells transfected as in […] with vectors expressing dominant negative mutants for MEKK1, IκBα, or p90RSK, or treated with the proteasome inhibitor lactacystin (10 μM) (closed bars), and co-transfected with MSV-C/EBPβ-Glu^217 (1 μg each) (open bars) as indicated. Annexin-V-PE binding was determined as described for Panel A (P<0.05 for C/EBPβ-Glu^217). Panel E provides results for cells transfected as described for Panel C, with a dominant-negative p90RSK, treated with FAS (100 nM for 6 hours) or cultured in a serum-free medium for 6 hours (closed bars), and co-transfected with MSV-C/EBPβ-Glu^217 (1 μg each) (open bars), as indicated. Cell death was determined by nuclear staining with Hoechst 33342 (P<0.05 for C/EBPβ-Glu^217 in RSK mut and FAS-treated cells).
FIG. 4 provides results showing that C/EBPβ PThr^217 associates with procaspases 1 and 8, and inhibits their activation. Panel A provides schematic representations of C/EBPβ peptides. The activation (dotted bars), DNA binding (solid bars) and dimerization (hatched bars) domains are shown. […] Panel C provides results showing that C/EBPβ and procaspase 8 were detected in activated stellate cells isolated from C/EBPβ^+/+ mice by confocal microscopy using specific antibodies (Santa Cruz Biotechnology). Control C/EBPβ^−/− stellate cells were negative for C/EBPβ, positive for procaspase 8, and apoptotic. Panel D provides immunoblot results for MSV vectors expressing C/EBPβ-HA (hemagglutinin protein) peptides (0.3 μg) transfected into activated stellate cells. The expressed peptides were immunoprecipitated with anti-HA antibodies. C/EBPβ-PThr^217 was detected using a specific antibody, only in cells expressing wild-type C/EBPβ. […] RSK was associated with all C/EBPβ peptides. Neither C/EBPβ nor procaspases 1 and 8 were detected in C/EBPβ immunoprecipitates from cells expressing C/EBPβ AS. Reciprocal immunoprecipitations of procaspases and RSK confirmed these associations.
Adult male Sprague-Dawley rats and adult male C/EBPβ^+/+ and C/EBPβ^−/− (Screpanti et al., supra; and Buck et al., (1999), supra), C/EBPβ-Ala^217 and C/EBPβ-Asp^105 transgenic mice were used for the isolation of primary hepatic stellate cells (Houglum et al., supra). Primary hepatic stellate cells were isolated by collagenase/pronase perfusion and purified by a single step density Nycodenz gradient (Accurate Chemical & Scientific) as known in the art (See, Lee et al., (1995), supra). Cells were plated on type I collagen matrix (Becton Dickinson) or EHS matrix (Matrigel, Collaborative Biomedical Products). Cells were cultured with 10% fetal calf serum/10% fetal bovine serum and transfected with lipofectamine (GIBCO) for DNA vectors or with the Chariot reagent (Active Motif) for peptides (10 μM) as known in the art (See, Houglum et al., supra; and Morris et al., J. Biol. Chem., 274:24942-24946 (1999)). […]

Molecule | Effect of expressed construct on apoptosis / survival of stellate cells | Rescue from induced apoptosis by expressed construct (apoptosis induced by dominant negative MEKK1, IκBα or RSK mutants or by lactacystin)
C/EBPβ 216-253-Ala^217: C/EBPβ fragment 216-253 with Ala^217, lacking the activation and dimerization domains (KAVDKLSDEYKMRRERNNIAVRKSRDKAKMRNLETQHK; left off: small tags and cut ends) | induced apoptosis | 
B1 | induced apoptosis | 
B2 |  | rescued

— US8129349B2, “Treatment of disease by inducing cell apoptosis” (The Regents of the University of California, priority 2000, dated 2012)
